Legend:
MS2 coat protein [1] = assay: apparent KD of MS2 coat protein, switch ON state; designed switch direction (-1 OFF switch, 1 ON switch): -1; higher = weaker reporter binding; settings: FMN input: 0 or 200 uM; Eterna round: R93 (includes R88 designs)
In short: (§1)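 With or without constant ligand, designed RNA switches in 100 mM Tris-HCl pH 7.5, 80 mM KCl and 4 mM MgCl2 were titrated with SNAP-549-labelled MS2 coat protein. Concentrations went up in twofold steps from 0.7 or 1.5 nM to 3 µM. The switches had been transcribed on-chip from Illumina sequencing clusters, and apparent KD is the per-design median of normalised cluster binding-curve fits.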

MS2 coat protein [2] = assay: apparent KD of MS2 coat protein, switch OFF state (with FMN for OFF switches, without FMN for ON switches); designed switch direction (-1 OFF switch, 1 ON switch): -1; higher = weaker reporter binding; settings: FMN input: 0 or 200 uM; Eterna round: R93 (includes R88 designs)
In short: as §1

Sequence: AAAAAACAUGAGGAUCACCCAUGUGAGGAUAUCCUAAAAAAAAAAAAAAAAAAAAAAAGGAGAAGGCACAUAAA [EXCLS-II]
- apparent KD of MS2 coat protein (MS2 coat protein [1]): 47.6 nM
- apparent KD of MS2 coat protein (MS2 coat protein [2]): 64.8 nM

Sequence: AGCAAACAUGAGGAUCACCCAUGUCAGGAUAUGAACGAAAUAAAUAAAAAAUAAAAGUUCAGAAGGGACGAGCA [Mat - Exclusion 1 - Eli mod - D25]
- apparent KD of MS2 coat protein (MS2 coat protein [1]): 32.4 nM
- apparent KD of MS2 coat protein (MS2 coat protein [2]): 42.9 nM

Sequence: GGGUAACAUGAGGAUCACCCAUGUGAGGAUAUGCUAGGGAUGGAAGCCAGGCCAAAAAGCAGAAGGUACUAAAG [Janelle Amethyst 18 Mod 16 - Jieux - Exclusion 1]
- apparent KD of MS2 coat protein (MS2 coat protein [1]): 23.6 nM
- apparent KD of MS2 coat protein (MS2 coat protein [2]): 34.3 nM

Sequence: AGUUGGCGAGGAUAUACAUGAGGAUCACCCAUGUGAGAGUAAAAAGUGAGAAAGAAAAGUAGAAGGCGCUCACA [JL Lego Mod 14]
- apparent KD of MS2 coat protein (MS2 coat protein [1]): 77.5 nM
- apparent KD of MS2 coat protein (MS2 coat protein [2]): 46.3 nM

Sequence: CUCAUGUCAGGAUAUCAGUAGUAAAAAAAAAAAAUUACUACUGAGAAGGGACAUGAGGAUCACCCAUGUCCCAA [EX4 305: Super Stable 5]
- apparent KD of MS2 coat protein (MS2 coat protein [1]): 30.7 nM
- apparent KD of MS2 coat protein (MS2 coat protein [2]): 36.3 nM

Sequence: AAGAAGGUAGGAUAUACAAAAUAAAAGAAAAGAAAGAAAGAACAUGAGGAUCACCCAUGUAGAAGGACCAAGAA [Khutawyre Wegaf]
- apparent KD of MS2 coat protein (MS2 coat protein [1]): 34.3 nM
- apparent KD of MS2 coat protein (MS2 coat protein [2]): 17.7 nM

Sequence: GGAAAACAUGAGGAUCACCCAUGUGAGGAUAUGCAGGAUAUAGAAGGAAAAAAAAAAAGCAGAAGGUACGAAGG [salish99-ex1-17]
- apparent KD of MS2 coat protein (MS2 coat protein [1]): 22.3 nM
- apparent KD of MS2 coat protein (MS2 coat protein [2]): 36.3 nM

Sequence: GAAAACAUAGGAUAUACAUGAGGAUCACCCAUGUUAAAAUAAAGAAAGGGAGAAAUAAGUAGAAGGAUGAAAAA [Mat - Mod of Meechl]
- apparent KD of MS2 coat protein (MS2 coat protein [1]): 25.6 nM
- apparent KD of MS2 coat protein (MS2 coat protein [2]): 29.8 nM

Sequence: AAAAAGUGAGGAUAUAUAUGAAACAAAAAGAAAAAAAAAAAACAUGAGGAUCACCCAUGUAGAAGGCGCAAAAA ['Exclusion 2' Lab]
- apparent KD of MS2 coat protein (MS2 coat protein [1]): 27.1 nM
- apparent KD of MS2 coat protein (MS2 coat protein [2]): 21.5 nM

Sequence: GAAAAGUCAGGAUAUAUAGGAAAAAUAAAAAAAAUAAAACUAUAGAAGGGACAUGAGGAUCACCCAUGUUAAAG [Mat - Exclusion 4 - Mayanna - D132]
- apparent KD of MS2 coat protein (MS2 coat protein [1]): 44.5 nM
- apparent KD of MS2 coat protein (MS2 coat protein [2]): 25.5 nM

Sequence: CUCUUGUAAGGAUAUGACUACAUAAAAAAAAAAAAAUGUAGUCAGAAGGUACAUGAGGAUCACCCAUGUACAAA [Brourd - Exclusion 4 - Sub 1]
- apparent KD of MS2 coat protein (MS2 coat protein [1]): 24.5 nM
- apparent KD of MS2 coat protein (MS2 coat protein [2]): 36 nM

Sequence: AAAAAACAUGAGGAUCACCCAUGUAAGGAUAUCCAAAAGAAAAGAAAAGAAAGAAGAAGGAGAAGGUACAAGAA [Sahure]
- apparent KD of MS2 coat protein (MS2 coat protein [1]): 41.1 nM
- apparent KD of MS2 coat protein (MS2 coat protein [2]): 32.4 nM

Sequence: AAAAAUGGAGGAUAUACAUGAGGAUCACCCAUGUGUAACUAUACUAAGCACACCUCACGUAGAAGGCCAAAAAA [Gilly Gone Silly 12 - Jieux - Exclusion 3]
- apparent KD of MS2 coat protein (MS2 coat protein [1]): 105 nM
- apparent KD of MS2 coat protein (MS2 coat protein [2]): 321 nM

Sequence: GAAAAGUGAGGAUAUGUCAAAAGUCACAAAAGUGACAAAAGACAGAAGGCACAUGAGGAUCACCCAUGUGAAAG [Mat - Exaclusion 4 - Eli mod - D54]
- apparent KD of MS2 coat protein (MS2 coat protein [1]): 24.7 nM
- apparent KD of MS2 coat protein (MS2 coat protein [2]): 28.4 nM

Sequence: AAAAAUGGAGGAUAUACAUGAGGAUCACCCAUGUGUGGCCAUACUAUGUGGGCGUCAGGUAGAAGGCCAAAAAA [Gilly Gone Silly 24 - Jieux - Exclusion 3]
- apparent KD of MS2 coat protein (MS2 coat protein [1]): 22.3 nM
- apparent KD of MS2 coat protein (MS2 coat protein [2]): 56 nM

Sequence: AACAAGUCAGGAUAUGCGAACAGAAAAUAAGCUACACAAAAGCAGAAGGGACAUGAGGAUCACCCAUGUAAAUA [JR_Exc004_Sub501]
- apparent KD of MS2 coat protein (MS2 coat protein [1]): 49.9 nM
- apparent KD of MS2 coat protein (MS2 coat protein [2]): 29.8 nM

From the supplement of paper PMC9170038
